In paper PMC10245680 (bioRxiv, 2023):

Tests used:
[1] = target: vUNG expressed in MHV68-infected 3T12 cells (Murid herpesvirus 4 (MHV68 wild type …, UniProt P88984)); assay: flow cytometry on cells
[2] = target: recombinant murine uracil DNA glycosylase (UNG) (Mus musculus, UniProt P97931); assay: ELISA
[3] = target: viral UNG (vUNG) expressed in transfected 293 cells (Murid herpesvirus 4 (MHV68), isolate …, UniProt P88984); assay: immunostaining of cells or tissue

Sequence of recombinant murine uracil DNA glycosylase (UNG) (P97931 whole entry): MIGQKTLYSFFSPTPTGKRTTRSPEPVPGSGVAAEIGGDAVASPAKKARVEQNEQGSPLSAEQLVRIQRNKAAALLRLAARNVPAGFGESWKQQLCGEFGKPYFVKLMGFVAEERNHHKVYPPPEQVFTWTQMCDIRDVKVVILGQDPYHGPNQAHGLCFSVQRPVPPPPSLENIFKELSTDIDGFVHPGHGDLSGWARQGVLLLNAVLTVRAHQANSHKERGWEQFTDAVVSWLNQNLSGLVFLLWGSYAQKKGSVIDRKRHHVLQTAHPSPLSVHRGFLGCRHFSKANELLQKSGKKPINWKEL

B1: recombinant mouse anti-vUNG antibody (against MHV68 ORF46 / viral uracil DNA glycosylase) (antibody, V domains shown)
VH: QVQLQQPGAELVKPGASVKMSCKASGYTFTSYWITWVKQRPGQGLEWIGDIYPGSGSTKYNEKFKSKATLTVDTSSSTAYMQLSSLTSEDSAVYYCARLDYYYAMDYWGQGTSVTVSS
VL: DIVMTQSQKFMSTSVGDRVSVTCKASQNVGTNVAWYQQKPGQSPKALIYSASYRYSGVPDRFTGSGSGTDFTLTISNVPSEDLAEYFCQQYNNYPLTFGSGTKLEIK
B1: binds [1]; no binding [2]; binds [3].
